Experimental findings from patent publication WO2008131575A2 (dated 2008) are described below.

For this experiment, the target named is T1, human ALK epitope peptide (amino acids 391-406 of the ALK protein) (human).
T1 construct: the underscore is a remnant of the underlining; In the yeast screen it was fused to LexA; in the ELISA it is called the Alk LBD peptide; also called Alk LBD peptide; AIk LBD
T1 peptide: GRIGRPDNPFRVALEY
Briefly: ELISA (Fig. 5). (ELISA stands for enzyme-linked immunosorbent assay.)

B1: scFv 28.11 (scFv)
scFv: QSVLTQPPSVSAAPGQKVTISCSGSTSNIGDNYVSWYQQLPGTAPQLLIYDNTKRPSGIPDRFSGSKSGTSATLGITGLQTGDEADYYCATWDNDKWGVVFGGGTKLEVLGGGGGSGGGGSGGGGSSGGGSEVQLVESGGGLVQPGGSLRLSCAASGFTFSSYAMSWVRQAPGKGLEWVSAIETSSGSTYYADSVKGRFTISRDNSKNTLYLQMNSLRAEDTAVYYCARDAWLDVLSDGFDYWGQGTLVTVSS
As to B1, the Kd (commonly the free concentration of one partner at which half of the binding sites on the other are occupied at equilibrium, for simple one-to-one binding) lay within 2 to 3 nM.
